Measurements reported in article PMC5814829.
Substitutions are numbered along the chain they refer to. Read-outs that look alike come from different tables or passages of the source.

What was measured:
[1] = target: T1, ScPif1p (237-780) (Saccharomyces cerevisiae, UniProt P07271 237-780); experiment: crystal structure
T1 sequence: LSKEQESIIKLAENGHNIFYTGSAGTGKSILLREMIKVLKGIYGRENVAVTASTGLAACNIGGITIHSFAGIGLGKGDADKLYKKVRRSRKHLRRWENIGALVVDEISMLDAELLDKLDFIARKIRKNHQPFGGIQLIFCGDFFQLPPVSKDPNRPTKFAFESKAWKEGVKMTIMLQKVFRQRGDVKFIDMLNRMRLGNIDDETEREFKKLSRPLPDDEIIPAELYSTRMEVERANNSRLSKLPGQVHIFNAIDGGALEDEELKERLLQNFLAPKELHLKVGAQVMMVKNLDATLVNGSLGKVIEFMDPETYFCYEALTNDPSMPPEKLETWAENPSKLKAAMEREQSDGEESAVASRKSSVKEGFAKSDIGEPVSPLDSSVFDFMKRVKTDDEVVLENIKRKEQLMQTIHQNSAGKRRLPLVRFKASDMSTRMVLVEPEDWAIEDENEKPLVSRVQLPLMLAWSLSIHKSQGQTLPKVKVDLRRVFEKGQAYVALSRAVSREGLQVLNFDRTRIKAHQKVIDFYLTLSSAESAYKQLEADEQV

[2] = target: T1, ScPif1p (237-780); experiment: SEC-SAXS
[3] = target: T1, ScPif1p (237-780); experiment: crystal structure; remark: listed apart in the source
[4] = target: T1, ScPif1p (237-780); experiment: SEC-SAXS, gel filtration
[5] = target: T1, ScPif1p (237-780); experiment: fluorescence anisotropy
[6] = target: T2, ScPif1p H303G/H705G (Saccharomyces cerevisiae, UniProt P07271 237-780, H303G;H705G); experiment: fluorescence anisotropy
T2 sequence: T1 sequence with H67G, H469G

[7] = target: T1, ScPif1p (237-780); experiment: SEC-SAXS, gel filtration; remark: listed apart in the source
[8] = target: T1, ScPif1p (237-780); experiment: fluorescence anisotropy; remark: listed apart in the source

## GGGTTTTT (ssDNA) [Poly(G3T5)]
[1]
  binding result: binds

## GTGTGGTGTGG (ssDNA) [GR11]
[2]
  binding result: binds

## TTTTTTTT (ssDNA) [Poly(T8)]
[3]
  binding result: binds

## TTTGGGTT (ssDNA) [Poly(T3G3T2)]
[1]
  binding result: binds

## TTTTTTTTGGGTGGGTGGGTGGGT (structured_DNA) [8T3G4]
[4]
  binding result: binds

## CUCUGCUCGACG (ssRNA) [F-RNA12 (text: Poly(U12))]
[5]
  Kd: 163 nM
[6]
  Kd: 70.5 nM

## AGGGTTAGGGTTAGGGTTAGGG (structured_DNA) [3G4]
[7]
  binding result: binds

## TTTTTTTTTTTT (ssDNA) [Poly(T12)]
[8]
  Kd: 15.1 nM
